Data on one sequence can be found in US5789538.

This data set has as its target Zif268 finger 1 variant phage pool, CCTG selection round 5 finger 1 positions -1, 2, 3, 6 randomized (four NNS codons), pool (UniProt P08046). The data set can be described thus: SELEX. Particulars: [none], phage display pool, no enrichment, 0.45 M NaCl washes, 10 uM ZnCl2, 5 mM MgCl2.

Sequence “CTGAGCGTGGCCTGAGTGATCGATC / CACTCAGGCCACGCTCAG [CCTG duplex]” returned an activity (% phage retention) of less than 0.001.
